Substitutions are numbered along the chain they refer to.
Columns and labels:
[1] = target: T1, human Nectin-4 Mutant 8 (human, UniProt Q96NY8 32-510); experiment: binding to HEK293T cells expressing Nectin-4 mutant
T1 construct: Expressed on transfected HEK293T cells; also called T190A/T191Q/S193A
T1 chain: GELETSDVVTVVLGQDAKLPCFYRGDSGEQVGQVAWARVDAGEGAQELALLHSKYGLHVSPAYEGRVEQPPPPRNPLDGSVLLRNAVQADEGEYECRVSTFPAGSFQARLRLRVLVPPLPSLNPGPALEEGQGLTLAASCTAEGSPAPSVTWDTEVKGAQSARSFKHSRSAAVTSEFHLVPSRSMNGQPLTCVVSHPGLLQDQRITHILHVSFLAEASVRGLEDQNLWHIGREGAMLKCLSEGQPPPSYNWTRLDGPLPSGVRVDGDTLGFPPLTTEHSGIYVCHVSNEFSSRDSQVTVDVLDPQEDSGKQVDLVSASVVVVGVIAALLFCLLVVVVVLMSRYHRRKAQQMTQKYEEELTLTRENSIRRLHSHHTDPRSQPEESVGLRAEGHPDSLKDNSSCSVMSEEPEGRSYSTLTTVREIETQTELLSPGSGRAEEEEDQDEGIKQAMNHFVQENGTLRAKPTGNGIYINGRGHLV

[2] = target: T2, human Nectin-4 Mutant 9 (L150S/S152A/Q234R/I236S) (Homo sapiens, UniProt Q96NY8, I236S/L150S/Q234R/S152A); experiment: Epitope mapping using Nectin-4 point mutants; assay type: binding
T2 construct: expressed in transfected cells; host or cells: HEK293T
T2 sequence (Q96NY8 32-510 L150S/S152A/Q234R/I236S): T1 chain with L119S, S121A, A159T, Q160T, A162S, Q203R, I205S
From the text: (§1) Combined with the published structures of the Nectin-4 domains, Nectin-4 mutations at surface exposed amino acids residues were designed. Nectin-4 domain structure was modelled based on Protein Data Bank reference: 4FRW (domains V et C1). Human Nectin-4 used was NCBI Reference Sequence: NP_112178.2, mouse Nectin-4 used was NCBI Reference Sequence: AAL79833.1, cynomolgus Nectin-4 used was NCBI Reference Sequence: XP_005541277.1, rat Nectin-4 used was NCBI Reference Sequence: NP_001102546.1. The cells expressing the Nectin-4 mutants are then be used for testing anti-Nectin-4 antibodies for loss of binding to different Nectin-4 mutants to identify antibodies that bind to the same site on Nectin-4. […] FIGS. 8A and 8B show different view of a molecular model of the human Nectin-4 protein, indicating the position of substituted residues in mutants 1, 2, 3, 4, 5, 6, 7, 8 and 9.
(§2) Nectin-4 mutants were generated by PCR. The sequences amplified were run on agarose gel and purified using the Macherey Nagel PCR Clean-Up Gel Extraction kit. The purified PCR products generated for each mutant were then ligated into an expression vector, with the ClonTech InFusion system. The vectors containing the mutated sequences were prepared as Miniprep and sequenced. After sequencing, the vectors containing the mutated sequences were prepared as Midiprep using the Promega PureYield™ Plasmid Midiprep System. HEK293T cells were grown in DMEM medium (Invitrogen), transfected with vectors using Invitrogen's Lipofectamine 2000 and incubated at 37° C. in a CO2 incubator for 48 hours prior to testing for transgene expression. The targeted amino acid mutations are shown in Table 13 below, listing the residue present in wild-type Nectin-4/position of residue/residue present in mutant Nectin-4, with position reference being to the Nectin-4 protein with leader peptide shown in SEQ ID NO: 1.
(§3) (+) means that antibodies-Nectin-4 association occurs.

[3] = target: T3, human Nectin-4 Mutant 3 (A76S/Q77R/E78A/S91N) (Homo sapiens, UniProt Q96NY8, A76S/E78A/Q77R/S91N); experiment: Epitope mapping using Nectin-4 point mutants; assay type: binding
T3 construct: expressed in transfected cells; host or cells: HEK293T
T3 sequence (Q96NY8 32-510 A76S/Q77R/E78A/S91N): T1 chain with A45S, Q46R, E47A, S60N, A159T, Q160T, A162S
From the text: as §1, §2, §3

[4] = target: T4, human Nectin-4 Mutant 6 (H238A/I239T/H241Q) (Homo sapiens, UniProt Q96NY8, H238A/H241Q/I239T); experiment: Epitope mapping using Nectin-4 point mutants; assay type: binding
T4 construct: expressed in transfected cells; host or cells: HEK293T
T4 sequence (Q96NY8 32-510 H238A/I239T/H241Q): T1 chain with A159T, Q160T, A162S, H207A, I208T, H210Q
From the text: as §1, §2, §3

B1: N41 (antibody, V domains shown)
VH: QVQLKQSGPGLVQPSQSLSITCTVSGFSLTNYGVHWVRQSPGKGLEWLGVIWSGGSTDYNAAFISRLSISKDTSKSQVFFKMNSLQADDTAIYYCARELIHAMDNWGQGTSVTVSS
VL: DIQMTQSPASLSVSVGETVTITCRASENIYSNLAWYQQKQGNSPQLLVFAATNLADGVPSRFSGSGSGTQYSLKINSLQSEDFGTYYCQHFWGTPTFGGGTKLEIK
binding result [1]: binds
association with Mutant 9 [2]: +
association with Mutant 3 [3]: +
association with Mutant 6 [4]: +

B2: 5E7 (antibody, V domains shown)
VH: QVQLQQPGAELVKPGASVKLSCKASGYIFTSYWMHWVKQRPGQGLEWIGEIDPSDSYTNYNQKFKGKATLTLDKSSSTTYMQLSSLTSEDSAVYYCVRGYGNYGDYWGQGTTLTVSSASTKGP
VL: DVVMTQAAFSNPVTLGTSASISCRSSKSLLHSNGITYLYWYLQKPGQSPQLLIYQMSNLASGVPDRFSSSGSGTDFTLRISRVEAEDVGVYYCAQNLELPWTFGGGTKLEIKRTVAAP
association with Mutant 9 [2]: +
association with Mutant 3 [3]: +
association with Mutant 6 [4]: +

B3: chimeric parental 5E7 antibody (antibody, V domains shown)
VH: QVQLQQPGAELVKPGASVKLSCKASGYIFTSYWMHWVKQRPGQGLEWIGEIDPSDSYTNYNQKFKGKATLTLDKSSSTTYMQLSSLTSEDSAVYYCVRGYGNYGDYWGQGTTLTVSS
VL: DVVMTQAAFSNPVTLGTSASISCRSSKSLLHSNGITYLYWYLQKPGQSPQLLIYQMSNLASGVPDRFSSSGSGTDFTLRISRVEAEDVGVYYCAQNLELPWTFGGGTKLEIKR
notes: Chimeric antibody, murine variable domains with human constant regions; also called ch5E7; CHG1-M-1N4-5E7
binding result [1]: binds

Source: patent publication US20250297004A1, “NECTIN-4 BINDING AGENTS” (INNATE PHARMA, priority 2022, published 2025)
